# Experimental data as given in paper PMC2875865 (Nature cell biology, 2010).
# B1: GST-fused STIM1 serine/threonine rich sequence (S/T) (domain or fragment)
# chain: SSLDDVDHKILTAKQALSEVTAALRERLHRWQQIEILCGFQIVNNPGIHSLVAALNIDPSWMGSTRPNPAHFIMTDDVDDMDEEIVSPLSMQSPSLQSSVRQRLTEPQHGLGSQRDLTHSDSESSLHMSDRQRVAPKPPQMSRAADEALNAMTSNGSHRLIEGVHPGSLVEKLPDSPALAKKALLALNHGLDKAHSLMELS
# How the values were obtained:
# [1] = biological target: full-length FLAG-tagged Orai1 purified from insect cells (human, UniProt Q96D31 1-301); assay: pull-down
# Chain of full-length FLAG-tagged Orai1 purified from insect cells (Q96D31 whole entry): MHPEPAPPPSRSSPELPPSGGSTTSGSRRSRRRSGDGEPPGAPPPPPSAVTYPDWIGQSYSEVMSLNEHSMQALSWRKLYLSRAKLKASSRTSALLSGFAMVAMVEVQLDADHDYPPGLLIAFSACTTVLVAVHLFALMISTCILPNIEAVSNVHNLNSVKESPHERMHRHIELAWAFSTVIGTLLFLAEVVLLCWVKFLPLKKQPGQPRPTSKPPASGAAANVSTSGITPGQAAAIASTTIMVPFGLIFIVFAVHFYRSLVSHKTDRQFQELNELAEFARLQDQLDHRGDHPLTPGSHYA
# [2] = biological target: full-length FLAG-tagged STIM1 purified from insect cells (human, UniProt Q13586 23-685); assay: pull-down
# Chain of full-length FLAG-tagged STIM1 purified from insect cells (Q13586 23-685): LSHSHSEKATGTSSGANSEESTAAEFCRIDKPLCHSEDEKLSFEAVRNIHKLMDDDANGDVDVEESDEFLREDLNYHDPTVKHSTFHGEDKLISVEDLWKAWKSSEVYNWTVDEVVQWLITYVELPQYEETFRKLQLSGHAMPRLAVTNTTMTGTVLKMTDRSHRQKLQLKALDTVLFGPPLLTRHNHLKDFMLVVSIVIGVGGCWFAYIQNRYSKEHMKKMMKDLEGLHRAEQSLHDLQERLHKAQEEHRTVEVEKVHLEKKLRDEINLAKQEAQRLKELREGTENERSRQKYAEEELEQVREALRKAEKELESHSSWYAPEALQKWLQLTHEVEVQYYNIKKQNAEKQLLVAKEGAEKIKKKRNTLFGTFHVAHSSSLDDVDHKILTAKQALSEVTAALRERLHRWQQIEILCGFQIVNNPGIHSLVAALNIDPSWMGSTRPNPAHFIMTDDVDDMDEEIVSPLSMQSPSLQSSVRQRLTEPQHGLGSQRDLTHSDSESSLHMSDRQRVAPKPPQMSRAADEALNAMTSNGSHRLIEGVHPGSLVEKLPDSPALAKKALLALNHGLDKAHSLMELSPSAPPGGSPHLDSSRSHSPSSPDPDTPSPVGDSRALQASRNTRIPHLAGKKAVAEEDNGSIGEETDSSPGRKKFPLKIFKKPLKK
binder,measurement,setting,value
B1,binding result,[1],binds
same,binding result,[2],binds
